Source: patent publication US20180119100A1

Tests used:
Assay in all cases: cell-based or functional assay
[1] = molecular target: OX40L expressed on mouse GM-BMDCs (mouse) (UniProt P43488)
[2] = molecular target: Notch 3 expressed on mouse T-cells (Tregs) (mouse) (UniProt Q61982)
[3] = molecular target: Jagged-1 expressed on mouse GM-BMDCs (mouse) (UniProt Q9QXX0)
Chain of UniProt Q9QXX0 (Q9QXX0 34-1218): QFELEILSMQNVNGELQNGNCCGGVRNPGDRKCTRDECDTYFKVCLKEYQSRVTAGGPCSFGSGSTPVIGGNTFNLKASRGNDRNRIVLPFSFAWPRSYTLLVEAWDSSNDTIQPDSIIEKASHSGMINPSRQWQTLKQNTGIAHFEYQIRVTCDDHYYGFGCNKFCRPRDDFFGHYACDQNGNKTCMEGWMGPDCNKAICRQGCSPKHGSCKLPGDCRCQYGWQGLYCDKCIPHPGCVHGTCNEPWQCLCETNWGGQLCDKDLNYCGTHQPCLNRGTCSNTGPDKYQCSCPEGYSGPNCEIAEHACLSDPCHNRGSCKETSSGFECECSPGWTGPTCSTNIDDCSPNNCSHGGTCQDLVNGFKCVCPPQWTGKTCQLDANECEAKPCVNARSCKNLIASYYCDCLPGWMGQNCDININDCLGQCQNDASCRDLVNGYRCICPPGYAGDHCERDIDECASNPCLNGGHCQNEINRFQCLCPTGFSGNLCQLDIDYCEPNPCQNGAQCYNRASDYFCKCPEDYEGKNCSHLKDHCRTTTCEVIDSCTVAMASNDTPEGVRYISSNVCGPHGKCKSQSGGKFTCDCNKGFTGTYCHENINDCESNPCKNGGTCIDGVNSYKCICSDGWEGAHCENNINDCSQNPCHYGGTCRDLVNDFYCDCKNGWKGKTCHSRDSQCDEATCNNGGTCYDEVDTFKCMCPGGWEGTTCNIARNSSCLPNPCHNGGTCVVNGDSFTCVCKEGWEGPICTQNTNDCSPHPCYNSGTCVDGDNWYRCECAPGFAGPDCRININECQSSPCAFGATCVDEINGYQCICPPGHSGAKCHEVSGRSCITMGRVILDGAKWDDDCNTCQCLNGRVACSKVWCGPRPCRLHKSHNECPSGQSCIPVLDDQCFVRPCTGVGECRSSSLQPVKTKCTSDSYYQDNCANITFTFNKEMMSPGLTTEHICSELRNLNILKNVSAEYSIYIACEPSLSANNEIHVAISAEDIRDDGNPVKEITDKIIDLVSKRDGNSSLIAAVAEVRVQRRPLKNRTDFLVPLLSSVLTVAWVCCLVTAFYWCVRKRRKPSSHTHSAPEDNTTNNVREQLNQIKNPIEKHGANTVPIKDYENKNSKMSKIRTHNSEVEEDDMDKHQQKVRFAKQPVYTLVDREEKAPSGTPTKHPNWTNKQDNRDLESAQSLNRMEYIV

Chain of UniProt P43488 (P43488 whole entry): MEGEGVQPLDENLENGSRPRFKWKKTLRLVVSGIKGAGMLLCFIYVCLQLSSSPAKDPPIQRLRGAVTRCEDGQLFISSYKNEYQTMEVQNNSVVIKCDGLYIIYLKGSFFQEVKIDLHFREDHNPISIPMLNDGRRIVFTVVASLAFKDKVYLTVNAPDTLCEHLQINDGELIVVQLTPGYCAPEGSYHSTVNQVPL
Chain of UniProt Q61982 (Q61982 40-2318): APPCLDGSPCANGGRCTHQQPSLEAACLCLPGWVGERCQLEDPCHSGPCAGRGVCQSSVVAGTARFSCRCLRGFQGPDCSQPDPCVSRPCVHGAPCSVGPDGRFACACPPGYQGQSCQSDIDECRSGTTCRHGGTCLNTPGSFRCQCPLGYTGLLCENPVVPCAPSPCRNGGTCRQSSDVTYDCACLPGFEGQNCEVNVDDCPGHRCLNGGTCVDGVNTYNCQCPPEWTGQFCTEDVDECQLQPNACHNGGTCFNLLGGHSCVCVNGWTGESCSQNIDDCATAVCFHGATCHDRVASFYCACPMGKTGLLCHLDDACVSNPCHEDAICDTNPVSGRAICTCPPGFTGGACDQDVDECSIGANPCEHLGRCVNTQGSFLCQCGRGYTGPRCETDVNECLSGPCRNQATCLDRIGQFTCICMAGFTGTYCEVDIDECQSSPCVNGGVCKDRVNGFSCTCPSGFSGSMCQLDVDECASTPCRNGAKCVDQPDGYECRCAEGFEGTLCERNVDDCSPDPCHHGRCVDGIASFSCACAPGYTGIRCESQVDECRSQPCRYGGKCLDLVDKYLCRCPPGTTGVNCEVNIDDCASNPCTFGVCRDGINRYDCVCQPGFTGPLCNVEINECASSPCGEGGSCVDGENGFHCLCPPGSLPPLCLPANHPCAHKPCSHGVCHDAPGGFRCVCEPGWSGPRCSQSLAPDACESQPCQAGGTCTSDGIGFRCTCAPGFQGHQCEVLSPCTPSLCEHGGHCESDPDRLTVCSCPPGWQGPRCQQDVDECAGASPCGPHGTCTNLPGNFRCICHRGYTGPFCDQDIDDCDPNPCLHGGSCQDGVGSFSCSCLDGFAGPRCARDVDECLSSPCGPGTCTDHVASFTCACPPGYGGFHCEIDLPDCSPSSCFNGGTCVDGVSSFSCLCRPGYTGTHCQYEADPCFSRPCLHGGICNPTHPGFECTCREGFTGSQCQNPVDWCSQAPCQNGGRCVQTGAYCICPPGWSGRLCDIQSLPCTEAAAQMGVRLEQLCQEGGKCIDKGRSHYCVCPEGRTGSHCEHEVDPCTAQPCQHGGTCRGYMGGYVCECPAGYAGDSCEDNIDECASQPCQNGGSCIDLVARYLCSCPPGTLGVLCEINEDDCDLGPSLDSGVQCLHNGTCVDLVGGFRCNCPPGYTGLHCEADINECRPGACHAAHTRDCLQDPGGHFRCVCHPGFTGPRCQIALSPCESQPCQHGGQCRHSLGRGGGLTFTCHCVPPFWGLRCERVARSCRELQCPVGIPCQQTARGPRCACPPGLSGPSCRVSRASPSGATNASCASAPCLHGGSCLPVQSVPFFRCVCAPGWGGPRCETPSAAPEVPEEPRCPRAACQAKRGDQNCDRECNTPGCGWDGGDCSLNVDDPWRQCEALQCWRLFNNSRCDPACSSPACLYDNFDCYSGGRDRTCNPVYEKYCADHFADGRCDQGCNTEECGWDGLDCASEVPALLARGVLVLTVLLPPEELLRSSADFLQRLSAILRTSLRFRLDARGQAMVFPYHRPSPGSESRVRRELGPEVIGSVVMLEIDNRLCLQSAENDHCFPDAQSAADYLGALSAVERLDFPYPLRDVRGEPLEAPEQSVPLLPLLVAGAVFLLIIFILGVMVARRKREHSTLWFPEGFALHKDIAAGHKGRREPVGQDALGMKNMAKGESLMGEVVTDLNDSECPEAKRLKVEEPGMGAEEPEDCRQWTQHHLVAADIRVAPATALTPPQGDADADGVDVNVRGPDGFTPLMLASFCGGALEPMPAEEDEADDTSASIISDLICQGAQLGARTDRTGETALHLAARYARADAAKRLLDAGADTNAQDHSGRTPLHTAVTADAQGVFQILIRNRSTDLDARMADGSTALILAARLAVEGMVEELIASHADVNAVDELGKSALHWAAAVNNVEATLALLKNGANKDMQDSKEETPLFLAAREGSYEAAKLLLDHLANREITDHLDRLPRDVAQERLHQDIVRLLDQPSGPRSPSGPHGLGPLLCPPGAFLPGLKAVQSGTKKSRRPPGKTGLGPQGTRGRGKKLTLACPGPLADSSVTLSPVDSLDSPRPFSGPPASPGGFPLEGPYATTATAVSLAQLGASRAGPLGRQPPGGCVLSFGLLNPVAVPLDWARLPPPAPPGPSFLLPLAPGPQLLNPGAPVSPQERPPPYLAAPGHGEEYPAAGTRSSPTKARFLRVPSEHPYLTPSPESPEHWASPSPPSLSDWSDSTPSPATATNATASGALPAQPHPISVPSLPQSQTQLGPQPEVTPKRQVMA

Blocking antibody to OX40L (AF1236, R&D systems)
Treg proliferation (%) in GM-BMDC/CD4+ T-cell co-culture with anti-OX40L-Hi (13.0% without antibody) [1]: 3.7%

Jagged-1 expressed on mouse GM-BMDCs (from UniProt Q9QXX0 34-1218) (ligand)
Proliferating Foxp3+ T cells positive for Notch 3 NICD in GM-BMDC/T-cell co-cultures (FACS) [2]: 97%

Blocking antibody to Jagged-1 (AF599, R&D systems)
Treg proliferation (%) in GM-BMDC/CD4+ T-cell co-culture with anti-Jagged-1-Hi (13.0% without antibody) [3]: 5.3%
